This note sets out measurements from US20250320302A1 (EVOTEC INTERNATIONAL, published 2025).

Common to all, as to experiment: cell-based or functional assay
Assay [1] addresses T1, human CD40 (human, UniProt P25942 21-277).
In assay [2] the target is human IFNγ receptor on HEK-Blue IFN-γ cells (human).
The target is the same in assay [3]. This is another data set of the same source.
The target in assay [4] is T1, human CD40. The source holds these as a separate data set.
Assay [5] has as its target human IFNγ receptor on HEK-Blue IFN-γ cells (human). The source holds these as a separate data set.

Read-outs that look alike come from different tables or passages of the source. Bounds are passed on as bounds.

T1 sequence (P25942 21-277): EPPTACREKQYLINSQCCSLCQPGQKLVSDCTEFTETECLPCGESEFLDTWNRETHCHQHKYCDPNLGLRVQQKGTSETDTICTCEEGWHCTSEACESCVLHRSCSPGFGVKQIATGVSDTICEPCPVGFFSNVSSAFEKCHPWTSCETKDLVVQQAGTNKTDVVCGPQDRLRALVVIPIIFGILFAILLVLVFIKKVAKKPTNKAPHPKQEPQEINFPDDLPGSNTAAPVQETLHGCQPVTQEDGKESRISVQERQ

B1: IFA125 (antibody, human IgG2, kappa)
heavy: QVQLVESGGGVVQPGKSLRLSCAASGFTFSSNGIHWVRQAPGKGLEWVAVIWSDGSNKFYADSVKGRFTISRDNSKNTLYLQMNSLRAEDTAVYYCARASGSGSYYNFFDYWGQGTLVTVSSASTKGPSVFPLAPCSRSTSESTAALGCLVKDYFPEPVTVSWNSGALTSGVHTFPAVLQSSGLYSLSSVVTVPSSNFGTQTYTCNVDHKPSNTKVDKTVERKCCVECPPCPAPPVAGPSVFLFPPKPKDTLMISRTPEVTCVVVDVSHEDPEVQFNWYVDGVEVHNAKTKPREEQFNSTFRVVSVLTVVHQDWLNGKEYKCKVSNKGLPAPIEKTISKTKGQPREPQVYTLPPSREEMTKNQVSLTCLVKGFYPSDIAVEWESNGQPENNYKTTPPMLDSDGSFFLYSKLTVDKSRWQQGNVFSCSVMHEALHNHYTQKSLSLSPGGGGGSGGGGSGGGGSGGGGSQDPYVKEAENLKKYFNAGHSDVADNGTLFLGILKNWKEESDRKIMQSQIVSFYFKLFKNFKDDQSIQKSVETIKEDMNVKFFNSNKKKRDDFEKLTNYSVTDLNVQRKAIHELIQVMAELSPAAKTGKRKRSQMLFRGRRASQ
light: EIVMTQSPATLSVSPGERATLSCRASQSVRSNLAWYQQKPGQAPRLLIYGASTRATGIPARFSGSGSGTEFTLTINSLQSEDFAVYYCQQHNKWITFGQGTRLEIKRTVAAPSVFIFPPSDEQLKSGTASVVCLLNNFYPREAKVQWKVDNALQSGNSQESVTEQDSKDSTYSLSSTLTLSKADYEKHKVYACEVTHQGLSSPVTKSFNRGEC
As to B1, the “CD40 EC50 (HEK-Blue CD40L NFκB-SEAP reporter cells)” value with human CD40 [1] worked out at 8.8 ng/mL. For the same molecule, the “IFNγ EC50 (HEK-Blue IFNγ reporter cells)” value in assay [2] is 0.142 ng/mL.

B2: IFA43 (antibody, human IgG2, kappa)
heavy: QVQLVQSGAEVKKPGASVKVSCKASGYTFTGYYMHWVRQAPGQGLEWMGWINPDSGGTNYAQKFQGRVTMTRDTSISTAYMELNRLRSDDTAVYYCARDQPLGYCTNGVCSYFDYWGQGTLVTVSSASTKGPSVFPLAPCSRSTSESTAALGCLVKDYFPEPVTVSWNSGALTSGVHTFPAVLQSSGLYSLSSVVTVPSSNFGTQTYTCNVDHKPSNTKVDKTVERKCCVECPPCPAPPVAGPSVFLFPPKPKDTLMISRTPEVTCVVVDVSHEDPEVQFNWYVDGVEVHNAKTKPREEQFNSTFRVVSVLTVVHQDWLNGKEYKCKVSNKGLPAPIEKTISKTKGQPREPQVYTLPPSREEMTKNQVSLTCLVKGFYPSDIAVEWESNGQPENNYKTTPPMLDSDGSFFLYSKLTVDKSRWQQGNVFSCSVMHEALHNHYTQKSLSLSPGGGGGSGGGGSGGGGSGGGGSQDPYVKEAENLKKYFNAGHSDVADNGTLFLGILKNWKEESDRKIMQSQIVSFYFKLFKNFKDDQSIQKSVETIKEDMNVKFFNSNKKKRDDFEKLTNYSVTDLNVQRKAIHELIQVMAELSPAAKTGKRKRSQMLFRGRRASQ
light: DIQMTQSPSSVSASVGDRVTITCRASQGIYSWLAWYQQKPGKAPNLLIYTASTLQSGVPSRFSGSGSGTDFTLTISSLQPEDFATYYCQQANIFPLTFGGGTKVEIKRTVAAPSVFIFPPSDEQLKSGTASVVCLLNNFYPREAKVQWKVDNALQSGNSQESVTEQDSKDSTYSLSSTLTLSKADYEKHKVYACEVTHQGLSSPVTKSFNRGEC
With B2, the entries for the “IFNγ EC50 (HEK-Blue IFNγ reporter cells)” value in assay [3] and in assay [5] were below 0.01 ng/mL and below 0.001 ng/mL, respectively. Also, the “CD40 EC50 (HEK-Blue CD40L NFκB-SEAP reporter cells)” value with human CD40 [4] is 50.8 ng/mL.
